{"source": "patent US20160024487", "key": {"[1]": {"target": "T1, Lys(Dnp)-ATNATFVPRIVGG-Lys(Abz)", "T1 chain": "KATNATFVPRIVGGK"}, "[2]": {"target": "T2, Lys(Dnp)-ATNATMTPRIVGG-Lys(Abz)", "T2 chain": "KATNATMTPRIVGGK"}, "[3]": {"target": "T3, Lys(Dnp)-ATNATMMPRIVGG-Lys(Abz)", "T3 chain": "KATNATMMPRIVGGK"}, "[4]": {"target": "T4, Lys(Dnp)-ATNATAFPRIVGG-Lys(Abz)", "T4 chain": "KATNATAFPRIVGGK"}, "[5]": {"target": "T5, Lys(Dnp)-ATNATWRPRIVGG-Lys(Abz)", "T5 chain": "KATNATWRPRIVGGK"}, "[6]": {"target": "T6, Lys(Dnp)-ATNATIHPRIVGG-Lys(Abz)", "T6 chain": "KATNATIHPRIVGGK"}, "[7]": {"target": "T7, Lys(Dnp)-ATNATLMPRIVGG-Lys(Abz)", "T7 chain": "KATNATLMPRIVGGK"}, "[8]": {"target": "T8, Lys(Dnp)-ATNATWGPRIVGG-Lys(Abz)", "T8 chain": "KATNATWGPRIVGGK"}, "[9]": {"target": "T9, Lys(Dnp)-ATNATLKPRIVGG-Lys(Abz)", "T9 chain": "KATNATLKPRIVGGK"}, "[10]": {"target": "T10, Lys(Dnp)-ATNATWSPRIVGG-Lys(Abz)", "T10 chain": "KATNATWSPRIVGGK"}, "[11]": {"target": "T11, Lys(Dnp)-ATNATWQPRIVGG-Lys(Abz)", "T11 chain": "KATNATWQPRIVGGK"}, "[12]": {"target": "T12, Lys(Dnp)-ATNATVSPRIVGG-Lys(Abz)", "T12 chain": "KATNATVSPRIVGGK"}, "[13]": {"target": "T13, Lys(Dnp)-ATNATFTPRIVGG-Lys(Abz)", "T13 chain": "KATNATFTPRIVGGK"}, "[14]": {"target": "T14, Lys(Dnp)-ATNATQEPRIVGG-Lys(Abz)", "T14 chain": "KATNATQEPRIVGGK"}, "[15]": {"target": "T15, Lys(Dnp)-ATNATRTPRIVGG-Lys(Abz)", "T15 chain": "KATNATRTPRIVGGK"}, "[16]": {"target": "T16, Lys(Dnp)-ATNATQAPRIVGG-Lys(Abz)", "T16 chain": "KATNATQAPRIVGGK"}, "[17]": {"target": "T17, Lys(Dnp)-ATNATGDPRIVGG-Lys(Abz)", "T17 chain": "KATNATGDPRIVGGK"}, "[18]": {"target": "T18, Lys(Dnp)-ATNATVEPRIVGG-Lys(Abz)", "T18 chain": "KATNATVEPRIVGGK"}, "[19]": {"target": "T19, Lys(Dnp)-ATNATYNPRIVGG-Lys(Abz)", "T19 chain": "KATNATYNPRIVGGK"}, "[20]": {"target": "T20, Lys(Dnp)-ATNATRFPRIVGG-Lys(Abz)", "T20 chain": "KATNATRFPRIVGGK"}, "[21]": {"target": "T21, Lys(Dnp)-ATNATNAPRIVGG-Lys(Abz)", "T21 chain": "KATNATNAPRIVGGK"}, "[22]": {"target": "T22, Lys(Dnp)-ATNATDHPRIVGG-Lys(Abz)", "T22 chain": "KATNATDHPRIVGGK"}, "[23]": {"target": "T23, Lys(Dnp)-ATNATFPPRIVGG-Lys(Abz)", "T23 chain": "KATNATFPPRIVGGK"}, "[24]": {"target": "T24, Lys(Dnp)-ATNATLDPRIVGG-Lys(Abz)", "T24 chain": "KATNATLDPRIVGGK"}, "[25]": {"target": "T25, Lys(Dnp)-ATNATLGPRIVGG-Lys(Abz)", "T25 chain": "KATNATLGPRIVGGK"}, "[26]": {"target": "T26, Lys(Dnp)-ATNATFSPRIVGG-Lys(Abz)", "T26 chain": "KATNATFSPRIVGGK"}, "[27]": {"target": "T27, Lys(Dnp)-ATNATVPPRIVGG-Lys(Abz)", "T27 chain": "KATNATVPPRIVGGK"}, "[28]": {"target": "T28, Lys(Dnp)-ATNATPAPRIVGG-Lys(Abz)", "T28 chain": "KATNATPAPRIVGGK"}, "[29]": {"target": "T29, Lys(Dnp)-ATNATKEPRIVGG-Lys(Abz)", "T29 chain": "KATNATKEPRIVGGK"}, "[30]": {"target": "T30, Lys(Dnp)-ATNATEYPRIVGG-Lys(Abz)", "T30 chain": "KATNATEYPRIVGGK"}, "[31]": {"target": "T31, Lys(Dnp)-ATNATLNPRIVGG-Lys(Abz)", "T31 chain": "KATNATLNPRIVGGK"}, "[32]": {"target": "T32, Lys(Dnp)-ATNATSLPRIVGG-Lys(Abz)", "T32 chain": "KATNATSLPRIVGGK"}, "[33]": {"target": "T33, Lys(Dnp)-ATNATVAPRIVGG-Lys(Abz)", "T33 chain": "KATNATVAPRIVGGK"}, "[34]": {"target": "T34, Lys(Dnp)-ATNATEGPRIVGG-Lys(Abz)", "T34 chain": "KATNATEGPRIVGGK"}, "[35]": {"target": "T35, Lys(Dnp)-ATNATYGPRIVGG-Lys(Abz)", "T35 chain": "KATNATYGPRIVGGK"}, "[36]": {"target": "T36, Lys(Dnp)-ATNATYFPRIVGG-Lys(Abz)", "T36 chain": "KATNATYFPRIVGGK"}, "[37]": {"target": "T37, Lys(Dnp)-ATNATHPPRIVGG-Lys(Abz)", "T37 chain": "KATNATHPPRIVGGK"}, "[38]": {"target": "T38, Lys(Dnp)-ATNATKKPRIVGG-Lys(Abz)", "T38 chain": "KATNATKKPRIVGGK"}, "[39]": {"target": "T39, Lys(Dnp)-ATNATHDPRIVGG-Lys(Abz)", "T39 chain": "KATNATHDPRIVGGK"}, "[40]": {"target": "T40, Lys(Dnp)-ATNATKSPRIVGG-Lys(Abz)", "T40 chain": "KATNATKSPRIVGGK"}, "[41]": {"target": "T41, Lys(Dnp)-ATNATMPPRIVGG-Lys(Abz)", "T41 chain": "KATNATMPPRIVGGK"}}}
{"protein": "Human plasma purified Factor Xa (protein) chain 1: ANSFLEEMKKGHLERECMEETCSYEEAREVFEDSDKTNEFWNKYKDGDQCETSPCQNQGKCKDGLGEYTCTCLEGFEGKNCELFTRKLCSLDNGDCDQFCHEEQNSVVCSCARGYTLADNGKACIPTGPYPCGKQTLER chain 2: IVGGQECKDGECPWQALLINEENEGFCGGTILSEFYILTAAHCLYQAKRFKVRVGDRNTEQEEGGEAVHEVEVVIKHNRFTKETYDFDIAVLRLKTPITFRMNVAPACLPERDWAESTLMTQKTGIVSGFGRTHEKGRQSTRLKMLEVPYVDRNSCKLSSSFIITQNMFCAGYDTKQEDACQGDSGGPHVTRFKDTYFVTGIVSWGEGCARKGKYGIYTKVTAFLKWIDRSMKTRGLPKAKSHAPEVITSSPLK", "values": [{"measurement": "FXa kcat/KM", "setting": "[1]", "result": 71, "unit": "M⁻¹ s⁻¹"}, {"measurement": "FXa kcat/KM", "setting": "[2]", "result": 97, "unit": "M⁻¹ s⁻¹"}, {"measurement": "FXa kcat/KM", "setting": "[3]", "result": 1000, "unit": "M⁻¹ s⁻¹"}, {"measurement": "FXa kcat/KM", "setting": "[4]", "result": 22, "unit": "M⁻¹ s⁻¹"}, {"measurement": "FXa kcat/KM", "setting": "[5]", "result": 800, "unit": "M⁻¹ s⁻¹"}, {"measurement": "FXa kcat/KM", "setting": "[6]", "result": 810, "unit": "M⁻¹ s⁻¹"}, {"measurement": "FXa kcat/KM", "setting": "[7]", "result": 2700, "unit": "M⁻¹ s⁻¹"}, {"measurement": "FXa kcat/KM", "setting": "[8]", "result": 61, "unit": "M⁻¹ s⁻¹"}, {"measurement": "FXa kcat/KM", "setting": "[9]", "result": 72, "unit": "M⁻¹ s⁻¹"}, {"measurement": "FXa kcat/KM", "setting": "[10]", "result": 52, "unit": "M⁻¹ s⁻¹"}, {"measurement": "FXa kcat/KM", "setting": "[11]", "result": 37, "unit": "M⁻¹ s⁻¹"}, {"measurement": "FXa kcat/KM", "setting": "[12]", "result": 88, "unit": "M⁻¹ s⁻¹"}, {"measurement": "FXa kcat/KM", "setting": "[13]", "result": 49, "unit": "M⁻¹ s⁻¹"}]}
{"protein": "Human plasma purified Factor Xa (Molecular Innovations, Inc) (protein) chain 1: ANSFLEEMKKGHLERECMEETCSYEEAREVFEDSDKTNEFWNKYKDGDQCETSPCQNQGKCKDGLGEYTCTCLEGFEGKNCELFTRKLCSLDNGDCDQFCHEEQNSVVCSCARGYTLADNGKACIPTGPYPCGKQTLER chain 2: IVGGQECKDGECPWQALLINEENEGFCGGTILSEFYILTAAHCLYQAKRFKVRVGDRNTEQEEGGEAVHEVEVVIKHNRFTKETYDFDIAVLRLKTPITFRMNVAPACLPERDWAESTLMTQKTGIVSGFGRTHEKGRQSTRLKMLEVPYVDRNSCKLSSSFIITQNMFCAGYDTKQEDACQGDSGGPHVTRFKDTYFVTGIVSWGEGCARKGKYGIYTKVTAFLKWIDRSMKTRGLPKAKSHAPEVITSSPLK", "values": [{"measurement": "FXa kcat/KM", "setting": "[14]", "result": 920, "unit": "M⁻¹ s⁻¹"}, {"measurement": "FXa kcat/KM", "setting": "[15]", "result": 1500, "unit": "M⁻¹ s⁻¹"}, {"measurement": "FXa kcat/KM", "setting": "[16]", "result": 410, "unit": "M⁻¹ s⁻¹"}, {"measurement": "FXa kcat/KM", "setting": "[17]", "result": 73, "unit": "M⁻¹ s⁻¹"}, {"measurement": "FXa kcat/KM", "setting": "[18]", "result": 110, "unit": "M⁻¹ s⁻¹"}, {"measurement": "FXa kcat/KM", "setting": "[19]", "result": 50, "unit": "M⁻¹ s⁻¹"}, {"measurement": "FXa kcat/KM", "setting": "[20]", "result": 730, "unit": "M⁻¹ s⁻¹"}, {"measurement": "FXa kcat/KM", "setting": "[21]", "result": 17, "unit": "M⁻¹ s⁻¹"}, {"measurement": "FXa kcat/KM", "setting": "[22]", "result": 5, "unit": "M⁻¹ s⁻¹"}, {"measurement": "FXa kcat/KM", "setting": "[23]", "result": 6.2, "unit": "M⁻¹ s⁻¹"}, {"measurement": "FXa kcat/KM", "setting": "[24]", "result": 1000, "unit": "M⁻¹ s⁻¹"}, {"measurement": "FXa kcat/KM", "setting": "[25]", "result": 140, "unit": "M⁻¹ s⁻¹"}, {"measurement": "FXa kcat/KM", "setting": "[26]", "result": 190, "unit": "M⁻¹ s⁻¹"}, {"measurement": "FXa kcat/KM", "setting": "[27]", "result": 6.3, "unit": "M⁻¹ s⁻¹"}, {"measurement": "FXa kcat/KM", "setting": "[28]", "result": 170, "unit": "M⁻¹ s⁻¹"}, {"measurement": "FXa kcat/KM", "setting": "[29]", "result": 62, "unit": "M⁻¹ s⁻¹"}, {"measurement": "FXa kcat/KM", "setting": "[30]", "result": 15, "unit": "M⁻¹ s⁻¹"}, {"measurement": "FXa kcat/KM", "setting": "[31]", "result": 940, "unit": "M⁻¹ s⁻¹"}, {"measurement": "FXa kcat/KM", "setting": "[32]", "result": 82, "unit": "M⁻¹ s⁻¹"}, {"measurement": "FXa kcat/KM", "setting": "[33]", "result": 62, "unit": "M⁻¹ s⁻¹"}, {"measurement": "FXa kcat/KM", "setting": "[34]", "result": 18, "unit": "M⁻¹ s⁻¹"}, {"measurement": "FXa kcat/KM", "setting": "[35]", "result": 41, "unit": "M⁻¹ s⁻¹"}, {"measurement": "FXa kcat/KM", "setting": "[36]", "result": 34, "unit": "M⁻¹ s⁻¹"}, {"measurement": "FXa kcat/KM", "setting": "[37]", "result": 7, "unit": "M⁻¹ s⁻¹"}, {"measurement": "FXa kcat/KM", "setting": "[38]", "result": 25, "unit": "M⁻¹ s⁻¹"}, {"measurement": "FXa kcat/KM", "setting": "[39]", "result": 86, "unit": "M⁻¹ s⁻¹"}, {"measurement": "FXa kcat/KM", "setting": "[40]", "result": 84, "unit": "M⁻¹ s⁻¹"}, {"measurement": "FXa kcat/KM", "setting": "[41]", "result": 4.1, "unit": "M⁻¹ s⁻¹"}]}
